Experimental data published in paper PMC9309889, “Cryo-EM Structure of an Atypical Proton-Coupled Peptide Transporter: Di- and Tripeptide Permease C” (Frontiers in Molecular Biosciences, 2022).

Molecular target: the molecule itself
Assay: cryo-EM structure; DtpC-Nb26 complex in 0.015% DDM, 100 mM NaCl, 10 mM HEPES pH 7.5, 0.5 mM TCEP; inverted dimer at 3.0 Å, local focused refinement on one transporter at 2.7 Å

B1: Di- and tripeptide permease C (DtpC), wild type (natural protein, Escherichia coli, UniProt P39276 1-485, looked up)
chain: MKTPSQPRAIYYIVAIQIWEYFSFYGMRALLILYLTHQLGFDDNHAISLFSAYASLVYVTPILGGWLADRLLGNRTAVIAGALLMTLGHVVLGIDTNSTFSLYLALAIIICGYGLFKSNISCLLGELYDENDHRRDGGFSLLYAAGNIGSIAAPIACGLAAQWYGWHVGFALAGGGMFIGLLIFLSGHRHFQSTRSMDKKALTSVKFALPVWSWLVVMLCLAPVFFTLLLENDWSGYLLAIVCLIAAQIIARMMIKFPEHRRALWQIVLLMFVGTLFWVLAQQGGSTISLFIDRFVNRQAFNIEVPTALFQSVNAIAVMLAGVVLAWLASPESRGNSTLRVWLKFAFGLLLMACGFMLLAFDARHAAADGQASMGVMISGLALMGFAELFIDPVAIAQITRLKMSGVLTGIYMLATGAVANWLAGVVAQQTTESQISGMAIAAYQRFFSQMGEWTLACVAIIVVLAFATRFLFSTPTNMIQESND
notes: Di- and tripeptide permease C (DtpC, YjdL) of Escherichia coli; full-length cDNA amplified from the E. coli genome, cloned into pNIC-CTHF; The His tag was cut off with TEV protease; also called YjdL; DtpC WT; source: E. coli C41(DE3), purified in DDM (Ni-NTA, TEV cleavage, negative IMAC, SEC); not shown: His-Tag, C-terminal, cleaved
  stoichiometry N: 2
